Columns and labels:
Kv1.3 = target: T1, Kv1.3 (Homo sapiens, UniProt P22001); test: cell-based; type: cell-based; details: 100% = no change, <100% = inhibition
T1 construct: host or cells: HEK293 or CHO
Outline: (§1)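 Peptides were tested in duplicate at final 20 μM and 200 nM, with concentration set by amino acid analysis, in HEPES-buffered saline. They were applied for at least 5 min to HEK293 or CHO cells transfected with each channel. Currents were expressed as % inhibition, 1-(Ipeptide/Icontrol)×100, or % activation, Ipeptide/Icontrol×100, against a channel-matched reference compound.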

Kv1.2 = target: T2, Kv1.2 (Homo sapiens, UniProt P16389); test: cell-based; type: cell-based; details: 100% = no change, <100% = inhibition
T2 construct: host or cells: HEK293 or CHO
Outline: as §1

Kv1.1 = target: T3, Kv1.1 (Homo sapiens, UniProt Q09470); test: cell-based; type: cell-based; details: 100% = no change, <100% = inhibition
T3 construct: host or cells: HEK293 or CHO
Outline: as §1

Nav1.7 = target: T4, Nav1.7 (Homo sapiens, UniProt Q15858); test: cell-based; type: cell-based; details: 100% = no change; for Activity of Nav1.7 with peptide, expressed as a percentage of the reference compound: peptide at 0.2 μM; for Activity of Nav1.7 with peptide (percentage of the reference compound): peptide at 20 μM
T4 construct: host or cells: HEK293 or CHO
T4 sequence (Q15858 whole entry): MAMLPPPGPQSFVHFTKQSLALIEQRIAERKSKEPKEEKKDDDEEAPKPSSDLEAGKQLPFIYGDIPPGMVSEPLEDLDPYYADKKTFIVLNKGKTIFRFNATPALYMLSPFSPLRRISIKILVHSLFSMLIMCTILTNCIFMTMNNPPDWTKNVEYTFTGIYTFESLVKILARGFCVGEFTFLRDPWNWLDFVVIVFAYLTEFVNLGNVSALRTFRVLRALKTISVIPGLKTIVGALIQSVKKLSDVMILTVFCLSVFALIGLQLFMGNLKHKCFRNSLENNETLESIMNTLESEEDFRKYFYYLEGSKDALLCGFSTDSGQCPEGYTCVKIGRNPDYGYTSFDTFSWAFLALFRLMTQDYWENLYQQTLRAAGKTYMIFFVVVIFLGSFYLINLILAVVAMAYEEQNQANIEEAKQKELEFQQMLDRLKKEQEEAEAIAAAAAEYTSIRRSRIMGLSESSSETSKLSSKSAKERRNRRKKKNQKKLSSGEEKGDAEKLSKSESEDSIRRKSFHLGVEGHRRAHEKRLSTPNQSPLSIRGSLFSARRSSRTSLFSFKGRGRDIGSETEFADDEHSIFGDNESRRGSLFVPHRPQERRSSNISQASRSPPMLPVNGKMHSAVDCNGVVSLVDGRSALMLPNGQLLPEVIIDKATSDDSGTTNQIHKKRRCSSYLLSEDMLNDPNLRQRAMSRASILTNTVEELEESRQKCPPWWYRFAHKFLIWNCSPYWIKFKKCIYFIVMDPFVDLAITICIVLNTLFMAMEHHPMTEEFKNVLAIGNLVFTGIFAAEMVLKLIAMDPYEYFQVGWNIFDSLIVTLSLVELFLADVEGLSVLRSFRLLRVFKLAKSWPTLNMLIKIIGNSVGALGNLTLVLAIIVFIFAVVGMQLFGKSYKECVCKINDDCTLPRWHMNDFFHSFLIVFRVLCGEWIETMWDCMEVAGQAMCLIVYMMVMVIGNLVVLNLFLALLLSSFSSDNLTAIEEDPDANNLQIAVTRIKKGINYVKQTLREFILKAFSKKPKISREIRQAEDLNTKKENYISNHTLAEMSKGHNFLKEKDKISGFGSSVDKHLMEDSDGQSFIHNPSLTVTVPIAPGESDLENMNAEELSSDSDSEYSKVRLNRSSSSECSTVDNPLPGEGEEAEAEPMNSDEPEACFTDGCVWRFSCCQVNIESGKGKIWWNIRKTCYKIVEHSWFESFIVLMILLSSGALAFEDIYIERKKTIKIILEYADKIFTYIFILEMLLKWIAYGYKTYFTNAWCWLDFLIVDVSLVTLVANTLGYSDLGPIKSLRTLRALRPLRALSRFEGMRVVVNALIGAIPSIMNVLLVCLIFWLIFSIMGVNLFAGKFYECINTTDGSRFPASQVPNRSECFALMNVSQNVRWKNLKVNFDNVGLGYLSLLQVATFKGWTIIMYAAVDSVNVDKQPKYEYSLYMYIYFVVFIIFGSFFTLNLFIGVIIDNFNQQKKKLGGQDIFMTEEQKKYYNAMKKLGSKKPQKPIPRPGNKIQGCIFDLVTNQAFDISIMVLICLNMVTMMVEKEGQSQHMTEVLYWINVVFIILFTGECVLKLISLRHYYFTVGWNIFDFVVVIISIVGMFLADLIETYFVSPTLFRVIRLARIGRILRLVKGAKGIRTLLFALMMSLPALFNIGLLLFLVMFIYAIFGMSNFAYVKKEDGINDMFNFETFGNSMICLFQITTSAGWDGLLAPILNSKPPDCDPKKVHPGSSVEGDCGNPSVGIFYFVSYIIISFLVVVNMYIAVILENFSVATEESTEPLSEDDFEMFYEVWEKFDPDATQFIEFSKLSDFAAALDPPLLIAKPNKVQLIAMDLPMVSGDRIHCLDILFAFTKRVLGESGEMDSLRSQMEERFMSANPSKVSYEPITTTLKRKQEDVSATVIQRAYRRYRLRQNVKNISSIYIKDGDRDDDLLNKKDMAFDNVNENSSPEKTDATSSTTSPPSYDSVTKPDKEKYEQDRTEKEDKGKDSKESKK

Cav2.1 = target: T5, Cav2.1 (Homo sapiens, UniProt O00555); test: cell-based; details: 100% = no change, <100% = inhibition
T5 construct: host or cells: HEK293 or CHO
Outline: as §1

Cav2.2 = target: T6, Cav2.2 (Homo sapiens, UniProt Q00975); test: cell-based; details: 100% = no change, <100% = inhibition
T6 construct: host or cells: HEK293 or CHO
Outline: as §1

Kv2.1 = target: T7, Kv2.1 (Homo sapiens, UniProt Q14721); test: cell-based; details: 100% = no change, <100% = inhibition
T7 construct: host or cells: HEK293 or CHO
Outline: as §1

α4β2 = target: T8, α4β2 (Homo sapiens, UniProt P17787+P43681); test: Ion channel panel (IonWorks Barracuda): α4β2; type: cell-based; details: 100% = no change, <100% = inhibition
T8 construct: host or cells: HEK293 or CHO
Outline: as §1

α3β4 = target: T9, α3β4 (Homo sapiens, UniProt P30926+P32297); test: Ion channel panel (IonWorks Barracuda): α3β4; type: cell-based; details: 100% = no change, <100% = inhibition
T9 construct: host or cells: HEK293 or CHO
T9 sequence (P30926 22-498): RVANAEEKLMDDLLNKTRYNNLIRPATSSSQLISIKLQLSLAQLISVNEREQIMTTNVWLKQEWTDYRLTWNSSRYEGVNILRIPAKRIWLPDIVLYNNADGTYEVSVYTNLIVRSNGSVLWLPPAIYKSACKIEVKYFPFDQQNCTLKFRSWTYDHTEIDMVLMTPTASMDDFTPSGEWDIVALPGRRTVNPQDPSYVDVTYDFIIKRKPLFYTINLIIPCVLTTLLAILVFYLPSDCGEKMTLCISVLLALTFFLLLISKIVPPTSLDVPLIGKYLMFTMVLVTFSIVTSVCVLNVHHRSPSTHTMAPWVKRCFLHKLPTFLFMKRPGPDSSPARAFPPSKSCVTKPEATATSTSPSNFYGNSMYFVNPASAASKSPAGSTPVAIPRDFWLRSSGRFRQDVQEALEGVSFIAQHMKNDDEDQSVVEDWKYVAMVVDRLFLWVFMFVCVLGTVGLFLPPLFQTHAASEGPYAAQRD
T9 sequence (P32297 32-505): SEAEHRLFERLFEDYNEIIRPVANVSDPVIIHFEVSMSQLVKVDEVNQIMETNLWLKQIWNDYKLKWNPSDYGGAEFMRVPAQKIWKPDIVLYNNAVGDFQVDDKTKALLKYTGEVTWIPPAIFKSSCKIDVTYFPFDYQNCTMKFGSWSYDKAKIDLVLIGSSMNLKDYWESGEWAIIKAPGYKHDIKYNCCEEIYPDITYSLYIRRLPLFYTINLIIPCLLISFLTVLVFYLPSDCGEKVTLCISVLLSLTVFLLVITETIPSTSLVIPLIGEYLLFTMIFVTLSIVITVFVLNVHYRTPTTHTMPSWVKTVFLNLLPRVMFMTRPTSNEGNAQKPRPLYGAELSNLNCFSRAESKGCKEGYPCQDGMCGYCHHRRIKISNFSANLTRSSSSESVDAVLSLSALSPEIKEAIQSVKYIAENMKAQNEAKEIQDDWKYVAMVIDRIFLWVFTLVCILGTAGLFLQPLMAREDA
Outline: as §1

NR2A = target: T10, NR2A (Homo sapiens, UniProt Q12879); test: Ion channel panel (IonWorks Barracuda): NR2A; type: cell-based; details: 100% = no change, <100% = inhibition
T10 construct: host or cells: HEK293 or CHO
Outline: as §1

Kir2.1 = target: T11, Kir2.1 (Homo sapiens, UniProt P63252); test: Ion channel panel (IonWorks Barracuda): Kir2.1; type: cell-based; details: 100% = no change, <100% = inhibition
T11 construct: host or cells: HEK293 or CHO
Outline: as §1

GABA = test: Ion channel panel (IonWorks Barracuda): GABA; type: cell-based; details: 100% = no change, <100% = inhibition
Outline: as §1

hERG = hERG (Homo sapiens, UniProt Q12809); test: in vitro; details: 100% = no change, <100% = inhibition
Outline: as §1

Nav1.5 = Nav1.5 (Homo sapiens, UniProt Q14524); test: in vitro; details: 100% = no change; for Activity of Nav1.5 with peptide, expressed as a percentage of the reference compound: peptide at 0.2 μM; for Activity of Nav1.5 with peptide (percentage of the reference compound): peptide at 20 μM
Nav1.5, sequence (Q14524 whole entry): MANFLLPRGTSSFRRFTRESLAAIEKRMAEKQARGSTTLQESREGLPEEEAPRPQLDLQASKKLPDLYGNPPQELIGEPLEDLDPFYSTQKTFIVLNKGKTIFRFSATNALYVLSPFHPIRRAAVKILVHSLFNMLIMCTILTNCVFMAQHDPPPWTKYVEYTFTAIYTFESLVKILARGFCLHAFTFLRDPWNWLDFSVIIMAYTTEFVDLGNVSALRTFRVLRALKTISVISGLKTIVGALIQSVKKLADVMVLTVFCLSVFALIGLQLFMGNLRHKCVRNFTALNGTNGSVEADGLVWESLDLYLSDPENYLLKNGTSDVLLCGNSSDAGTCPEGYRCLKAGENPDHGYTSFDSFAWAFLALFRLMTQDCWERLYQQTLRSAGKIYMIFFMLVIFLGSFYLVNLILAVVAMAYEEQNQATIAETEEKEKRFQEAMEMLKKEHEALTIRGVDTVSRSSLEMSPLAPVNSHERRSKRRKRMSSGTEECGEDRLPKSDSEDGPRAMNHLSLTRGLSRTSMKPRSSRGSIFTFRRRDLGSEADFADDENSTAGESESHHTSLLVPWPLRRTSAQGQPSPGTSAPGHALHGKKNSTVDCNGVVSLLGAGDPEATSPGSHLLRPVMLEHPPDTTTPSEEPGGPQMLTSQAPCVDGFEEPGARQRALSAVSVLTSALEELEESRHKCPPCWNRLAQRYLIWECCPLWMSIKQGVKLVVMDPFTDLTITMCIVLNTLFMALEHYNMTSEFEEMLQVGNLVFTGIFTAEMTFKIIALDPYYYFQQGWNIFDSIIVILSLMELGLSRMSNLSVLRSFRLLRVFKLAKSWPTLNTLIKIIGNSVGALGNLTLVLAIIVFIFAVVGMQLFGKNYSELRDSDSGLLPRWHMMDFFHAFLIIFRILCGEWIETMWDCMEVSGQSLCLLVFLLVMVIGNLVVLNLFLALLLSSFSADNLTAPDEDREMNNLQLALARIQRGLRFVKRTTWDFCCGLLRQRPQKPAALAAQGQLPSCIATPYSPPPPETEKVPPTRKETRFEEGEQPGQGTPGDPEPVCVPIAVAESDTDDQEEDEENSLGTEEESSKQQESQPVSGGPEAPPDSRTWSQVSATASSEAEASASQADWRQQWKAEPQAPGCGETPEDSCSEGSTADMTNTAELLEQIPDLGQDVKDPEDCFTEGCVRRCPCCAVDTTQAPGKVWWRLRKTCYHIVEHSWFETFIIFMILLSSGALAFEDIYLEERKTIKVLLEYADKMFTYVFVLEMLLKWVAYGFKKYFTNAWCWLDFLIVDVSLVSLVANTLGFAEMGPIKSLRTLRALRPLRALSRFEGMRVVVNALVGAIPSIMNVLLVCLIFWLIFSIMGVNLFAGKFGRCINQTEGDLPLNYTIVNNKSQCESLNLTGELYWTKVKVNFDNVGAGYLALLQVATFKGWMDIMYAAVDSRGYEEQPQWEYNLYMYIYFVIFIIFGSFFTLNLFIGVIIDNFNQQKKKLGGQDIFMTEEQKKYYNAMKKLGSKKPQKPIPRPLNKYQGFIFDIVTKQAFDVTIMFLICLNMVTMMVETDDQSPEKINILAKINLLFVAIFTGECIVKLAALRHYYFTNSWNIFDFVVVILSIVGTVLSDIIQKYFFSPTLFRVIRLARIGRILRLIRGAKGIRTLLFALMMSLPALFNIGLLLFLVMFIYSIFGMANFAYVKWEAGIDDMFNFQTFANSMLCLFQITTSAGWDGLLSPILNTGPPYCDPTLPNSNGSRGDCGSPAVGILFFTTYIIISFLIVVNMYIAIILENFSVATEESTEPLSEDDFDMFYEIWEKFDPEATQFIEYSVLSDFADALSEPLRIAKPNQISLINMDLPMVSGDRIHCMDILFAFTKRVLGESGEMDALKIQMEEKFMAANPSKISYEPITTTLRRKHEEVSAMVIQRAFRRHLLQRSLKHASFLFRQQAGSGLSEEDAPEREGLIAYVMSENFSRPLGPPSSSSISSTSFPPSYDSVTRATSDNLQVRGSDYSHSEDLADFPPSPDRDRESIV
Outline: as §1

5HT3a = target: T12, 5HT3a (Homo sapiens, UniProt P46098); test: Ion channel panel (IonWorks Barracuda): 5HT3a; type: cell-based
T12 construct: host or cells: HEK293 or CHO
T12 sequence (P46098 whole entry, looked up): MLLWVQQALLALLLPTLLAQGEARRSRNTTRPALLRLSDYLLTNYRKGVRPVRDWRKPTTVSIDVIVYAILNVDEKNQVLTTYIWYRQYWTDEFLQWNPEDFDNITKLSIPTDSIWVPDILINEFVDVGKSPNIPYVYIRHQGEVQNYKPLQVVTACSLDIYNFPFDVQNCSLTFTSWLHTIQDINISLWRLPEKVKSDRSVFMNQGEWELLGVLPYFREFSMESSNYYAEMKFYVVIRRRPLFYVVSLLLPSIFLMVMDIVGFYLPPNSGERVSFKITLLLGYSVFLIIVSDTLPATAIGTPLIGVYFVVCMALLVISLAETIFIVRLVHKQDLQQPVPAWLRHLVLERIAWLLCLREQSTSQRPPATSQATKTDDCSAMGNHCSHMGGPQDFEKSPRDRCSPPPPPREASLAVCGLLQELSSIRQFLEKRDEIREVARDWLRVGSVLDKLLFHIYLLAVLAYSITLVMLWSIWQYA
Outline: as §1

NR2B = target: T13, NR2B (Homo sapiens, UniProt Q13224); test: Ion channel panel (IonWorks Barracuda): NR2B; type: cell-based; details: 100% = no change, <100% = inhibition
T13 construct: host or cells: HEK293 or CHO
Outline: as §1

TRPV1 = target: T14, TRPV1 (Homo sapiens, UniProt Q8NER1); test: Ion channel panel (IonWorks Barracuda): TRPV1; type: cell-based; details: 100% = no change, <100% = inhibition
T14 construct: host or cells: HEK293 or CHO
Outline: as §1

TRPA1 = target: T15, TRPA1 (Homo sapiens, UniProt O75762); test: Ion channel panel (IonWorks Barracuda): TRPA1; type: cell-based; details: 100% = no change, <100% = inhibition
T15 construct: host or cells: HEK293 or CHO
Outline: as §1

[1] = first of two Nav1.7 columns (probably TP1)
[2] = second of two Nav1.7 columns (probably TP2)
[3] = first of two Nav1.5 columns (probably TP1)
[4] = second of two Nav1.5 columns (probably TP2)

24 (GSSCAKPGEMCMRIKCCDGQCGCNRGTGRCFCK) [compound 24]
Activity of Kv1.3 with peptide, expressed as a percentage of the reference compound (Kv1.3; peptide at 0.2 μM): 94% | Activity of Kv1.3 with peptide (percentage of the reference compound) (Kv1.3; peptide at 20 μM): 73% | Activity of Kv1.2 with peptide, expressed as a percentage of the reference compound (Kv1.2; peptide at 0.2 μM): 74% | Activity of Kv1.2 with peptide (percentage of the reference compound) (Kv1.2; peptide at 20 μM): 83% | Activity of Kv1.1 with peptide, expressed as a percentage of the reference compound (Kv1.1; peptide at 0.2 μM): 65% | Activity of Kv1.1 with peptide (percentage of the reference compound) (Kv1.1; peptide at 20 μM): 69% | Activity of Nav1.7 with peptide, expressed as a percentage of the reference compound (Nav1.7; [1]): 84% | Activity of Nav1.7 with peptide, expressed as a percentage of the reference compound (Nav1.7; [2]): 97% | Activity of Nav1.7 with peptide (percentage of the reference compound) (Nav1.7; [1]): 80% | Activity of Nav1.7 with peptide (percentage of the reference compound) (Nav1.7; [2]): 83% | Activity of Cav2.1 with peptide, expressed as a percentage of the reference compound (Cav2.1; peptide at 0.2 μM): 92% | Activity of Cav2.1 with peptide (percentage of the reference compound) (Cav2.1; peptide at 20 μM): 121% | Activity of Cav2.2 with peptide, expressed as a percentage of the reference compound (Cav2.2; peptide at 0.2 μM): 120% | Activity of Cav2.2 with peptide (percentage of the reference compound) (Cav2.2; peptide at 20 μM): 102% | Activity of Kv2.1 with peptide, expressed as a percentage of the reference compound (Kv2.1; peptide at 0.2 μM): 91% | Activity of Kv2.1 with peptide (percentage of the reference compound) (Kv2.1; peptide at 20 μM): 81% | Activity of a4b2 with peptide, expressed as a percentage of the reference compound (α4β2; peptide at 0.2 μM): 97% | Activity of a4b2 with peptide (percentage of the reference compound) (α4β2; peptide at 20 μM): 88% | Activity of a3b4 with peptide, expressed as a percentage of the reference compound (α3β4; peptide at 0.2 μM): 101% | Activity of a3b4 with peptide (percentage of the reference compound) (α3β4; peptide at 20 μM): 87% | Activity of NR2A with peptide, expressed as a percentage of the reference compound (NR2A; peptide at 0.2 μM): 102% | Activity of NR2A with peptide (percentage of the reference compound) (NR2A; peptide at 20 μM): 100% | Activity of Kir2.1 with peptide, expressed as a percentage of the reference compound (Kir2.1; peptide at 0.2 μM): 104% | Activity of Kir2.1 with peptide (percentage of the reference compound) (Kir2.1; peptide at 20 μM): 90% | Activity of GABA with peptide, expressed as a percentage of the reference compound (GABA; peptide at 0.2 μM): 96% | Activity of GABA with peptide (percentage of the reference compound) (GABA; peptide at 20 μM): 114% | Activity of hERG with peptide, expressed as a percentage of the reference compound (hERG; peptide at 0.2 μM): 88% | Activity of hERG with peptide (percentage of the reference compound) (hERG; peptide at 20 μM): 78% | Activity of Nav1.5 with peptide, expressed as a percentage of the reference compound (Nav1.5; [3]): 94% | Activity of Nav1.5 with peptide, expressed as a percentage of the reference compound (Nav1.5; [4]): 95% | Activity of Nav1.5 with peptide (percentage of the reference compound) (Nav1.5; [3]): 99% | Activity of Nav1.5 with peptide (percentage of the reference compound) (Nav1.5; [4]): 104% | Activity of 5HT3a with peptide (percentage of the reference compound) (5HT3a): 84% | Activity of 5HT3a with peptide, expressed as a percentage of the reference compound (5HT3a): 85% | Activity of NR2B with peptide, expressed as a percentage of the reference compound (NR2B; peptide at 0.2 μM): 102% | Activity of NR2B with peptide (percentage of the reference compound) (NR2B; peptide at 20 μM): 92% | Activity of TRPV1 with peptide, expressed as a percentage of the reference compound (TRPV1; peptide at 0.2 μM): 131% | Activity of TRPV1 with peptide (percentage of the reference compound) (TRPV1; peptide at 20 μM): 102% | Activity of TRPA1 with peptide, expressed as a percentage of the reference compound (TRPA1; peptide at 0.2 μM): 132% | Activity of TRPA1 with peptide (percentage of the reference compound) (TRPA1; peptide at 20 μM): 107%

— US20200262877A1, “ION CHANNEL-BINDING PEPTIDES AND METHODS OF USE THEREOF” (priority 2017, published 2020)
